Starred links: 1 amine or outer side, 2 acyl side, 3 side chain; linkers in the order of their positions; H or OH if unused. Non-standard residues stand in square brackets, D forms with d. Groups on a side chain read outwards from the residue. No end group written: not given here. *: point of attachment. C18 diacid = O=C(O)CCCCCCCCCCCCCCCCC(=O)*; C16 diacid = O=C(O)CCCCCCCCCCCCCCC(=O)*; γGlu = O=C(O)[C@H](CCC(=O)[*:2])N[*:1]; Adipoyl = O=C(CCCCC(=O)[*:2])[*:1]; Glutaryl = O=C(CCCC(=O)[*:2])[*:1]; Palmitoyl = CCCCCCCCCCCCCCCC(=O)*; Suc = O=C(CCC(=O)[*:2])[*:1]; Nle = CCCC[C@H](N)C(=O)O; AEEA = NCCOCCOCC(=O)O; Aib = CC(C)(N)C(=O)O
T1: human GIP receptor (human, UniProt P48546 22-466)
T1 sequence (looked up): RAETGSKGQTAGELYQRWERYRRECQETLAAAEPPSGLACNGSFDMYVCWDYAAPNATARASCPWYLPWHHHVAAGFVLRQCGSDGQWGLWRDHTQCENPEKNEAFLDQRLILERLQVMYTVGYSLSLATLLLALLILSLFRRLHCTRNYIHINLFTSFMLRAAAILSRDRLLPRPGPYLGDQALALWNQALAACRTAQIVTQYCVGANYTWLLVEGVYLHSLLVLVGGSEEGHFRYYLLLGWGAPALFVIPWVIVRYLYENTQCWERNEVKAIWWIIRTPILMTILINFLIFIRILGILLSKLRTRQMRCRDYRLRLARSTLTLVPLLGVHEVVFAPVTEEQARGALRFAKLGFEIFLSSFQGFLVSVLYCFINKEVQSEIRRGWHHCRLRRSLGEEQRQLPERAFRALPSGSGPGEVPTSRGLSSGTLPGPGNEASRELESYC

B1: AT754 (peptide)
peptide: EGTFISEYSI[Aib]LEKIK([AEEA-AEEA-γGlu-C18 diacid])QQDFVEWLLAQKPSSGAPPPS-OH
modifications: N-terminus assumed
SMILES: CC[C@H](C)[C@H](NC(=O)[C@H](CCCCN)NC(=O)[C@H](CCC(=O)O)NC(=O)[C@H](CC(C)C)NC(=O)C(C)(C)NC(=O)[C@@H](NC(=O)[C@H](CO)NC(=O)[C@H](Cc1ccc(O)cc1)NC(=O)[C@H](CCC(=O)O)NC(=O)[C@H](CO)NC(=O)[C@@H](NC(=O)[C@H](Cc1ccccc1)NC(=O)[C@@H](NC(=O)CNC(=O)[C@@H](N)CCC(=O)O)[C@@H](C)O)[C@@H](C)CC)[C@@H](C)CC)C(=O)N[C@@H](CCCCNC(=O)COCCOCCNC(=O)COCCOCCNC(=O)CC[C@H](NC(=O)CCCCCCCCCCCCCCCCC(=O)O)C(=O)O)C(=O)N[C@@H](CCC(N)=O)C(=O)N[C@@H](CCC(N)=O)C(=O)N[C@@H](CC(=O)O)C(=O)N[C@@H](Cc1ccccc1)C(=O)N[C@H](C(=O)N[C@@H](CCC(=O)O)C(=O)N[C@@H](Cc1c[nH]c2ccccc12)C(=O)N[C@@H](CC(C)C)C(=O)N[C@@H](CC(C)C)C(=O)N[C@@H](C)C(=O)N[C@@H](CCC(N)=O)C(=O)N[C@@H](CCCCN)C(=O)N1CCC[C@H]1C(=O)N[C@@H](CO)C(=O)N[C@@H](CO)C(=O)NCC(=O)N[C@@H](C)C(=O)N1CCC[C@H]1C(=O)N1CCC[C@H]1C(=O)N1CCC[C@H]1C(=O)N[C@@H](CO)C(=O)O)C(C)C
B2: AT753 (peptide)
peptide: Adipoyl-GTFISEYSI[Aib]LEKIK([AEEA-AEEA-γGlu-C18 diacid])QQEFVEWLLAQKPSSGAPPPS-OH
SMILES: CC[C@H](C)[C@H](NC(=O)[C@H](CCCCN)NC(=O)[C@H](CCC(=O)O)NC(=O)[C@H](CC(C)C)NC(=O)C(C)(C)NC(=O)[C@@H](NC(=O)[C@H](CO)NC(=O)[C@H](Cc1ccc(O)cc1)NC(=O)[C@H](CCC(=O)O)NC(=O)[C@H](CO)NC(=O)[C@@H](NC(=O)[C@H](Cc1ccccc1)NC(=O)[C@@H](NC(=O)CNC(=O)CCCCC(=O)O)[C@@H](C)O)[C@@H](C)CC)[C@@H](C)CC)C(=O)N[C@@H](CCCCNC(=O)COCCOCCNC(=O)COCCOCCNC(=O)CC[C@H](NC(=O)CCCCCCCCCCCCCCCCC(=O)O)C(=O)O)C(=O)N[C@@H](CCC(N)=O)C(=O)N[C@@H](CCC(N)=O)C(=O)N[C@@H](CCC(=O)O)C(=O)N[C@@H](Cc1ccccc1)C(=O)N[C@H](C(=O)N[C@@H](CCC(=O)O)C(=O)N[C@@H](Cc1c[nH]c2ccccc12)C(=O)N[C@@H](CC(C)C)C(=O)N[C@@H](CC(C)C)C(=O)N[C@@H](C)C(=O)N[C@@H](CCC(N)=O)C(=O)N[C@@H](CCCCN)C(=O)N1CCC[C@H]1C(=O)N[C@@H](CO)C(=O)N[C@@H](CO)C(=O)NCC(=O)N[C@@H](C)C(=O)N1CCC[C@H]1C(=O)N1CCC[C@H]1C(=O)N1CCC[C@H]1C(=O)N[C@@H](CO)C(=O)O)C(C)C
B3: AT751 (peptide)
peptide: EGTFISDYSIAMDKIK(Palmitoyl)QQDFVEWLLAQKPSSGAPPPS-OH
modifications: N-terminus assumed
SMILES: CCCCCCCCCCCCCCCC(=O)NCCCC[C@H](NC(=O)[C@@H](NC(=O)[C@H](CCCCN)NC(=O)[C@H](CC(=O)O)NC(=O)[C@H](CCSC)NC(=O)[C@H](C)NC(=O)[C@@H](NC(=O)[C@H](CO)NC(=O)[C@H](Cc1ccc(O)cc1)NC(=O)[C@H](CC(=O)O)NC(=O)[C@H](CO)NC(=O)[C@@H](NC(=O)[C@H](Cc1ccccc1)NC(=O)[C@@H](NC(=O)CNC(=O)[C@@H](N)CCC(=O)O)[C@@H](C)O)[C@@H](C)CC)[C@@H](C)CC)[C@@H](C)CC)C(=O)N[C@@H](CCC(N)=O)C(=O)N[C@@H](CCC(N)=O)C(=O)N[C@@H](CC(=O)O)C(=O)N[C@@H](Cc1ccccc1)C(=O)N[C@H](C(=O)N[C@@H](CCC(=O)O)C(=O)N[C@@H](Cc1c[nH]c2ccccc12)C(=O)N[C@@H](CC(C)C)C(=O)N[C@@H](CC(C)C)C(=O)N[C@@H](C)C(=O)N[C@@H](CCC(N)=O)C(=O)N[C@@H](CCCCN)C(=O)N1CCC[C@H]1C(=O)N[C@@H](CO)C(=O)N[C@@H](CO)C(=O)NCC(=O)N[C@@H](C)C(=O)N1CCC[C@H]1C(=O)N1CCC[C@H]1C(=O)N1CCC[C@H]1C(=O)N[C@@H](CO)C(=O)O)C(C)C
B4: AT706 (peptide)
peptide: Glutaryl-GTFISEYSI[Aib][Nle]EKIK([AEEA-AEEA-γGlu-C18 diacid])QQEFVEWLLAQKPSSGAPPPS-OH
SMILES: CCCC[C@H](NC(=O)C(C)(C)NC(=O)[C@@H](NC(=O)[C@H](CO)NC(=O)[C@H](Cc1ccc(O)cc1)NC(=O)[C@H](CCC(=O)O)NC(=O)[C@H](CO)NC(=O)[C@@H](NC(=O)[C@H](Cc1ccccc1)NC(=O)[C@@H](NC(=O)CNC(=O)CCCC(=O)O)[C@@H](C)O)[C@@H](C)CC)[C@@H](C)CC)C(=O)N[C@@H](CCC(=O)O)C(=O)N[C@@H](CCCCN)C(=O)N[C@H](C(=O)N[C@@H](CCCCNC(=O)COCCOCCNC(=O)COCCOCCNC(=O)CC[C@H](NC(=O)CCCCCCCCCCCCCCCCC(=O)O)C(=O)O)C(=O)N[C@@H](CCC(N)=O)C(=O)N[C@@H](CCC(N)=O)C(=O)N[C@@H](CCC(=O)O)C(=O)N[C@@H](Cc1ccccc1)C(=O)N[C@H](C(=O)N[C@@H](CCC(=O)O)C(=O)N[C@@H](Cc1c[nH]c2ccccc12)C(=O)N[C@@H](CC(C)C)C(=O)N[C@@H](CC(C)C)C(=O)N[C@@H](C)C(=O)N[C@@H](CCC(N)=O)C(=O)N[C@@H](CCCCN)C(=O)N1CCC[C@H]1C(=O)N[C@@H](CO)C(=O)N[C@@H](CO)C(=O)NCC(=O)N[C@@H](C)C(=O)N1CCC[C@H]1C(=O)N1CCC[C@H]1C(=O)N1CCC[C@H]1C(=O)N[C@@H](CO)C(=O)O)C(C)C)[C@@H](C)CC
B5: AT705 (peptide)
peptide: Glutaryl-GTFISEYSI[Aib]LEKIK([AEEA-AEEA-γGlu-C18 diacid])QQEFVEWLLAQKPSSGAPPPS-OH
SMILES: CC[C@H](C)[C@H](NC(=O)[C@H](CCCCN)NC(=O)[C@H](CCC(=O)O)NC(=O)[C@H](CC(C)C)NC(=O)C(C)(C)NC(=O)[C@@H](NC(=O)[C@H](CO)NC(=O)[C@H](Cc1ccc(O)cc1)NC(=O)[C@H](CCC(=O)O)NC(=O)[C@H](CO)NC(=O)[C@@H](NC(=O)[C@H](Cc1ccccc1)NC(=O)[C@@H](NC(=O)CNC(=O)CCCC(=O)O)[C@@H](C)O)[C@@H](C)CC)[C@@H](C)CC)C(=O)N[C@@H](CCCCNC(=O)COCCOCCNC(=O)COCCOCCNC(=O)CC[C@H](NC(=O)CCCCCCCCCCCCCCCCC(=O)O)C(=O)O)C(=O)N[C@@H](CCC(N)=O)C(=O)N[C@@H](CCC(N)=O)C(=O)N[C@@H](CCC(=O)O)C(=O)N[C@@H](Cc1ccccc1)C(=O)N[C@H](C(=O)N[C@@H](CCC(=O)O)C(=O)N[C@@H](Cc1c[nH]c2ccccc12)C(=O)N[C@@H](CC(C)C)C(=O)N[C@@H](CC(C)C)C(=O)N[C@@H](C)C(=O)N[C@@H](CCC(N)=O)C(=O)N[C@@H](CCCCN)C(=O)N1CCC[C@H]1C(=O)N[C@@H](CO)C(=O)N[C@@H](CO)C(=O)NCC(=O)N[C@@H](C)C(=O)N1CCC[C@H]1C(=O)N1CCC[C@H]1C(=O)N1CCC[C@H]1C(=O)N[C@@H](CO)C(=O)O)C(C)C
B6: AT755 (peptide)
peptide: Glutaryl-GTFISEYSI[Aib][Nle]EKIK(C16 diacid)QQEFVEWLLAQKPSSGAPPPS-OH
SMILES: CCCC[C@H](NC(=O)C(C)(C)NC(=O)[C@@H](NC(=O)[C@H](CO)NC(=O)[C@H](Cc1ccc(O)cc1)NC(=O)[C@H](CCC(=O)O)NC(=O)[C@H](CO)NC(=O)[C@@H](NC(=O)[C@H](Cc1ccccc1)NC(=O)[C@@H](NC(=O)CNC(=O)CCCC(=O)O)[C@@H](C)O)[C@@H](C)CC)[C@@H](C)CC)C(=O)N[C@@H](CCC(=O)O)C(=O)N[C@@H](CCCCN)C(=O)N[C@H](C(=O)N[C@@H](CCCCNC(=O)CCCCCCCCCCCCCCC(=O)O)C(=O)N[C@@H](CCC(N)=O)C(=O)N[C@@H](CCC(N)=O)C(=O)N[C@@H](CCC(=O)O)C(=O)N[C@@H](Cc1ccccc1)C(=O)N[C@H](C(=O)N[C@@H](CCC(=O)O)C(=O)N[C@@H](Cc1c[nH]c2ccccc12)C(=O)N[C@@H](CC(C)C)C(=O)N[C@@H](CC(C)C)C(=O)N[C@@H](C)C(=O)N[C@@H](CCC(N)=O)C(=O)N[C@@H](CCCCN)C(=O)N1CCC[C@H]1C(=O)N[C@@H](CO)C(=O)N[C@@H](CO)C(=O)NCC(=O)N[C@@H](C)C(=O)N1CCC[C@H]1C(=O)N1CCC[C@H]1C(=O)N1CCC[C@H]1C(=O)N[C@@H](CO)C(=O)O)C(C)C)[C@@H](C)CC

target: T1, human GIP receptor; test: cell-based or functional assay

Row | Binder | nM (Kb, Gaddum assay, cAMP) [nM] | pKb (Gaddum assay, cAMP)
1 | B1 | 2.2 | 8.7
2 | B2 | 0.23 | 9.6
3 | B3 | 0.92 | 9
4 | B4 | 0.26 | 9.6
5 | Suc-GTFISEYSI[Aib]LEKIK([AEEA-AEEA-γGlu-C18 diacid])QQEFVEWLLAQKPSSGAPPPS-OH [AT752] | 0.52 | 9.3
6 | B5 | 0.23 | 9.6
7 | B6 | 0.23 | 9.6

From patent US20230416330A1, “Optimized GIP Peptide Analogues” (Antag Therapeutics ApS, priority 2019, published 2023)
